According to patent US20190167771, “CONTROL ANGIOGENESIS BY REGULATING PHOSPHORYLATION OF SERYL-tRNA SYNTHETASE (SerRS)” (The Scripps Research Institute, published 2019):

Target: SerRS (seryl-tRNA synthetase) wild type (Homo sapiens, UniProt P49591 SEQ:1-514)
Test: EMSA; 20 mM Tris pH 8.0, 60 mM KCl, 5 mM MgCl2, poly(dG-dC), room temperature
Details: tags: C-terminal His6; label: 5'-32P
Description: The 27 bp DNA oligonucleotides corresponding to SerRS binding site on the VEGFA promoter (5′ GGCGGGGCGGAGCCATGCGCCCCCCCC 3′ (SEQ ID NO: 36)) were synthesized, annealed, and [³²P]-labeled at the 5′ end by T4 DNA kinase (New England Biolabs, Ipswich, Mass., USA) before desalting using a sephadex G-25 spin column (GE Healthcare, Pittsburgh, Pa., USA). The labeled oligonucleotides (0.08 pmol) were incubated with recombinant SerRS at indicated concentrations in binding buffer (20 mM Tris-HCl, pH 8.0, 60 mM KCl, 5 mM MgCl₂, 0.1 mg ml⁻¹ BSA, 10 ng μl⁻¹ poly (dG-dC), 1 mM DTT) for 30 min at room temperature. The samples were loaded to 5% native polyacrylamide gel (17.5 cm in length) and underwent electrophoresis at 250 V in running buffer (25 mM Tris, pH 8.3, 190 mM glycine). Afterwards, the gel was dried and examined by autoradiography.
The effect of hypoxia on the interaction of SerRS with VEGFA promoter was also explored. As detected by electrophoresis mobility shift assay (EMSA), the direct binding between SerRS and a ³²P-labeled 27-bp DNA fragment previously identified as the SerRS binding site from the VEGFA promoter in Shi et al. 2014 was attenuated by the phosphor-mimicking mutant SerRS^{S101D/S241D} (FIG. 2E).

SerRS (seryl-tRNA synthetase) wild type, sequence (P49591 whole entry): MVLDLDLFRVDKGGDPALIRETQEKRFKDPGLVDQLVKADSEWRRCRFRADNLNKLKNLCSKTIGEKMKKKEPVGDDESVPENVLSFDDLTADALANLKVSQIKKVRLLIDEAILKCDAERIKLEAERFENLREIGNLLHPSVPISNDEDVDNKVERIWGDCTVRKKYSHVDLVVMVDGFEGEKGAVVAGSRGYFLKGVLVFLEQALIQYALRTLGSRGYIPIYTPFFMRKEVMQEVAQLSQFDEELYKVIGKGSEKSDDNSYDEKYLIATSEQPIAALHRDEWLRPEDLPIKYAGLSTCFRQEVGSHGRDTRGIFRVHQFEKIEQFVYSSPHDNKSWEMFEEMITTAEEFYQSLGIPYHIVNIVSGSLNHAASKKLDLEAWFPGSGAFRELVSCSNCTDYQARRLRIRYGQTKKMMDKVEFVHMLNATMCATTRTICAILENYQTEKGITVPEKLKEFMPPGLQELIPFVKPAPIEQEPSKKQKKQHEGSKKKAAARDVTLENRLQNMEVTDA

B1: VEGFA promoter 27-bp SerRS site (dsDNA)
DNA 1: GGCGGGGCGGAGCCATGCGCCCCCCCC
DNA 2: GGGGGGGGCGCATGGCTCCGCCCCGCC
Q: Does B1 bind?
A: Result: binds
